# Source: US20250304643A1 (BAINAN BIOTECH, published 2025)
# *1 amine or outer side, *2 acyl side, *3 side chain or, on linkers, in order; H or OH if unused. Where no end group is shown, it is not given here. Side-chain parts run from the residue outwards. [ ]: non-standard residue; d: D form. The star is where a group is joined. γGlu = O=C(O)[C@H](CCC(=O)[*:2])N[*:1]; HOOC(CH2)8CO = O=C(O)CCCCCCCCC(=O)*; Palmitoyl = CCCCCCCCCCCCCCCC(=O)*; Decanoyl = CCCCCCCCCC(=O)*; Aib = CC(C)(N)C(=O)O
# T1: human glucose-dependent insulinotropic polypeptide receptor (human, UniProt P48546 22-466)
# T1 sequence (looked up): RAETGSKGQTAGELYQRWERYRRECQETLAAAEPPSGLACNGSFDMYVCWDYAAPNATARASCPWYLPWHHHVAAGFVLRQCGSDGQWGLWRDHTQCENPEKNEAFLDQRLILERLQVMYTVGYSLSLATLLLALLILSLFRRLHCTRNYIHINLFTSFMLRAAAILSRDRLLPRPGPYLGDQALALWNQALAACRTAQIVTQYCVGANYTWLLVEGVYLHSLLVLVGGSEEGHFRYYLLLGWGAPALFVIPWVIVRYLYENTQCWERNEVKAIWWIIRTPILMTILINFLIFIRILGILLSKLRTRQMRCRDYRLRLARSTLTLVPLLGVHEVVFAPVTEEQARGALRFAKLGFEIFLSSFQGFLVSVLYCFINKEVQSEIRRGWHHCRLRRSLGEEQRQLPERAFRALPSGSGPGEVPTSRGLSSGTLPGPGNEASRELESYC
# B1: Compound no. 12 (peptide)
# peptide: H-H[Aib]DGTFISDYSK([γGlu-Palmitoyl])ILDNLAARDFINWLIQTKITK-OH
# SMILES: CCCCCCCCCCCCCCCC(=O)N[C@@H](CCC(=O)NCCCC[C@H](NC(=O)[C@H](CO)NC(=O)[C@H](Cc1ccc(O)cc1)NC(=O)[C@H](CC(=O)O)NC(=O)[C@H](CO)NC(=O)[C@@H](NC(=O)[C@H](Cc1ccccc1)NC(=O)[C@@H](NC(=O)CNC(=O)[C@H](CC(=O)O)NC(=O)C(C)(C)NC(=O)[C@@H](N)Cc1c[nH]cn1)[C@@H](C)O)[C@@H](C)CC)C(=O)N[C@H](C(=O)N[C@@H](CC(C)C)C(=O)N[C@@H](CC(=O)O)C(=O)N[C@@H](CC(N)=O)C(=O)N[C@@H](CC(C)C)C(=O)N[C@@H](C)C(=O)N[C@@H](C)C(=O)N[C@@H](CCCNC(=N)N)C(=O)N[C@@H](CC(=O)O)C(=O)N[C@@H](Cc1ccccc1)C(=O)N[C@H](C(=O)N[C@@H](CC(N)=O)C(=O)N[C@@H](Cc1c[nH]c2ccccc12)C(=O)N[C@@H](CC(C)C)C(=O)N[C@H](C(=O)N[C@@H](CCC(N)=O)C(=O)N[C@H](C(=O)N[C@@H](CCCCN)C(=O)N[C@H](C(=O)N[C@H](C(=O)N[C@@H](CCCCN)C(=O)O)[C@@H](C)O)[C@@H](C)CC)[C@@H](C)O)[C@@H](C)CC)[C@@H](C)CC)[C@@H](C)CC)C(=O)O
# B2: Compound no. 18 (peptide)
# peptide: {HOOC(CH2)8CO}-H[Aib]DGTFISDYST[Aib]LDNLAARDFINWLIQTKITK-OH
# SMILES: CC[C@H](C)[C@H](NC(=O)[C@H](Cc1ccccc1)NC(=O)[C@H](CC(=O)O)NC(=O)[C@H](CCCNC(=N)N)NC(=O)[C@H](C)NC(=O)[C@H](C)NC(=O)[C@H](CC(C)C)NC(=O)[C@H](CC(N)=O)NC(=O)[C@H](CC(=O)O)NC(=O)[C@H](CC(C)C)NC(=O)C(C)(C)NC(=O)[C@@H](NC(=O)[C@H](CO)NC(=O)[C@H](Cc1ccc(O)cc1)NC(=O)[C@H](CC(=O)O)NC(=O)[C@H](CO)NC(=O)[C@@H](NC(=O)[C@H](Cc1ccccc1)NC(=O)[C@@H](NC(=O)CNC(=O)[C@H](CC(=O)O)NC(=O)C(C)(C)NC(=O)[C@H](Cc1c[nH]cn1)NC(=O)CCCCCCCCC(=O)O)[C@@H](C)O)[C@@H](C)CC)[C@@H](C)O)C(=O)N[C@@H](CC(N)=O)C(=O)N[C@@H](Cc1c[nH]c2ccccc12)C(=O)N[C@@H](CC(C)C)C(=O)N[C@H](C(=O)N[C@@H](CCC(N)=O)C(=O)N[C@H](C(=O)N[C@@H](CCCCN)C(=O)N[C@H](C(=O)N[C@H](C(=O)N[C@@H](CCCCN)C(=O)O)[C@@H](C)O)[C@@H](C)CC)[C@@H](C)O)[C@@H](C)CC
# B3: Compound no. 7 (peptide)
# peptide: Palmitoyl-H[Aib]DGTFISDYSTILDNLAARDFIEWLIQTKITK-OH
# SMILES: CCCCCCCCCCCCCCCC(=O)N[C@@H](Cc1c[nH]cn1)C(=O)NC(C)(C)C(=O)N[C@@H](CC(=O)O)C(=O)NCC(=O)N[C@H](C(=O)N[C@@H](Cc1ccccc1)C(=O)N[C@H](C(=O)N[C@@H](CO)C(=O)N[C@@H](CC(=O)O)C(=O)N[C@@H](Cc1ccc(O)cc1)C(=O)N[C@@H](CO)C(=O)N[C@H](C(=O)N[C@H](C(=O)N[C@@H](CC(C)C)C(=O)N[C@@H](CC(=O)O)C(=O)N[C@@H](CC(N)=O)C(=O)N[C@@H](CC(C)C)C(=O)N[C@@H](C)C(=O)N[C@@H](C)C(=O)N[C@@H](CCCNC(=N)N)C(=O)N[C@@H](CC(=O)O)C(=O)N[C@@H](Cc1ccccc1)C(=O)N[C@H](C(=O)N[C@@H](CCC(=O)O)C(=O)N[C@@H](Cc1c[nH]c2ccccc12)C(=O)N[C@@H](CC(C)C)C(=O)N[C@H](C(=O)N[C@@H](CCC(N)=O)C(=O)N[C@H](C(=O)N[C@@H](CCCCN)C(=O)N[C@H](C(=O)N[C@H](C(=O)N[C@@H](CCCCN)C(=O)O)[C@@H](C)O)[C@@H](C)CC)[C@@H](C)O)[C@@H](C)CC)[C@@H](C)CC)[C@@H](C)CC)[C@@H](C)O)[C@@H](C)CC)[C@@H](C)O
# B4: Compound no. 35 (peptide)
# peptide: H[Aib]DGTFISDYSK([γGlu-Palmitoyl])[Aib]LDNLAARDFINWLIQTKITK-OH
# modifications: N-terminus assumed
# SMILES: CCCCCCCCCCCCCCCC(=O)N[C@@H](CCC(=O)NCCCC[C@H](NC(=O)[C@H](CO)NC(=O)[C@H](Cc1ccc(O)cc1)NC(=O)[C@H](CC(=O)O)NC(=O)[C@H](CO)NC(=O)[C@@H](NC(=O)[C@H](Cc1ccccc1)NC(=O)[C@@H](NC(=O)CNC(=O)[C@H](CC(=O)O)NC(=O)C(C)(C)NC(=O)[C@@H](N)Cc1c[nH]cn1)[C@@H](C)O)[C@@H](C)CC)C(=O)NC(C)(C)C(=O)N[C@@H](CC(C)C)C(=O)N[C@@H](CC(=O)O)C(=O)N[C@@H](CC(N)=O)C(=O)N[C@@H](CC(C)C)C(=O)N[C@@H](C)C(=O)N[C@@H](C)C(=O)N[C@@H](CCCNC(=N)N)C(=O)N[C@@H](CC(=O)O)C(=O)N[C@@H](Cc1ccccc1)C(=O)N[C@H](C(=O)N[C@@H](CC(N)=O)C(=O)N[C@@H](Cc1c[nH]c2ccccc12)C(=O)N[C@@H](CC(C)C)C(=O)N[C@H](C(=O)N[C@@H](CCC(N)=O)C(=O)N[C@H](C(=O)N[C@@H](CCCCN)C(=O)N[C@H](C(=O)N[C@H](C(=O)N[C@@H](CCCCN)C(=O)O)[C@@H](C)O)[C@@H](C)CC)[C@@H](C)O)[C@@H](C)CC)[C@@H](C)CC)C(=O)O
# B5: Compound no. 36 (peptide)
# peptide: Ac-H[Aib]DGTFISDYSK([γGlu-Palmitoyl])[Aib]LDNLAARDFINWLIQTKITK-OH
# SMILES: CCCCCCCCCCCCCCCC(=O)N[C@@H](CCC(=O)NCCCC[C@H](NC(=O)[C@H](CO)NC(=O)[C@H](Cc1ccc(O)cc1)NC(=O)[C@H](CC(=O)O)NC(=O)[C@H](CO)NC(=O)[C@@H](NC(=O)[C@H](Cc1ccccc1)NC(=O)[C@@H](NC(=O)CNC(=O)[C@H](CC(=O)O)NC(=O)C(C)(C)NC(=O)[C@H](Cc1c[nH]cn1)NC(C)=O)[C@@H](C)O)[C@@H](C)CC)C(=O)NC(C)(C)C(=O)N[C@@H](CC(C)C)C(=O)N[C@@H](CC(=O)O)C(=O)N[C@@H](CC(N)=O)C(=O)N[C@@H](CC(C)C)C(=O)N[C@@H](C)C(=O)N[C@@H](C)C(=O)N[C@@H](CCCNC(=N)N)C(=O)N[C@@H](CC(=O)O)C(=O)N[C@@H](Cc1ccccc1)C(=O)N[C@H](C(=O)N[C@@H](CC(N)=O)C(=O)N[C@@H](Cc1c[nH]c2ccccc12)C(=O)N[C@@H](CC(C)C)C(=O)N[C@H](C(=O)N[C@@H](CCC(N)=O)C(=O)N[C@H](C(=O)N[C@@H](CCCCN)C(=O)N[C@H](C(=O)N[C@H](C(=O)N[C@@H](CCCCN)C(=O)O)[C@@H](C)O)[C@@H](C)CC)[C@@H](C)O)[C@@H](C)CC)[C@@H](C)CC)C(=O)O
# B6: Compound no. 8 (peptide)
# peptide: Palmitoyl-H[Aib]DGTFISDYSTILDNLAARDFIEWLIQTKIT-OH
# SMILES: CCCCCCCCCCCCCCCC(=O)N[C@@H](Cc1c[nH]cn1)C(=O)NC(C)(C)C(=O)N[C@@H](CC(=O)O)C(=O)NCC(=O)N[C@H](C(=O)N[C@@H](Cc1ccccc1)C(=O)N[C@H](C(=O)N[C@@H](CO)C(=O)N[C@@H](CC(=O)O)C(=O)N[C@@H](Cc1ccc(O)cc1)C(=O)N[C@@H](CO)C(=O)N[C@H](C(=O)N[C@H](C(=O)N[C@@H](CC(C)C)C(=O)N[C@@H](CC(=O)O)C(=O)N[C@@H](CC(N)=O)C(=O)N[C@@H](CC(C)C)C(=O)N[C@@H](C)C(=O)N[C@@H](C)C(=O)N[C@@H](CCCNC(=N)N)C(=O)N[C@@H](CC(=O)O)C(=O)N[C@@H](Cc1ccccc1)C(=O)N[C@H](C(=O)N[C@@H](CCC(=O)O)C(=O)N[C@@H](Cc1c[nH]c2ccccc12)C(=O)N[C@@H](CC(C)C)C(=O)N[C@H](C(=O)N[C@@H](CCC(N)=O)C(=O)N[C@H](C(=O)N[C@@H](CCCCN)C(=O)N[C@H](C(=O)N[C@H](C(=O)O)[C@@H](C)O)[C@@H](C)CC)[C@@H](C)O)[C@@H](C)CC)[C@@H](C)CC)[C@@H](C)CC)[C@@H](C)O)[C@@H](C)CC)[C@@H](C)O
# Target: T1, human glucose-dependent insulinotropic …
# Test: cell-based or functional assay
binder,measurement,value
B1,Efficacy GIPR,107%
B2,Efficacy GIPR,77%
Decanoyl-HADGTFISDYSTILDNLAAKDFINWLIQTKITKNDWKHNITQ [Compound no. 3],Efficacy GIPR,76%
H[Aib]DGTFISDYK([γGlu-Palmitoyl])T[Aib]LDNLAARDFINWLIQTKITKNDWKHNITQ-OH [Compound no. 37],Efficacy GIPR,95%
B3,Efficacy GIPR,114%
Palmitoyl-HADGTFISDYSTILDNLAARDFINWLIQTKITD [Compound no. 4],Efficacy GIPR,96%
B4,Efficacy GIPR,106%
Palmitoyl-HADGTFISDYSTILDNLAAKDFINWLIQTKITK [Compound no. 45],Efficacy GIPR,91%
B5,EC50 (nM) GIPR,1 nM
same,Efficacy GIPR,92%
Palmitoyl-HADGTFISDYSTILDNLAARDFINWLIQTKITD [Compound no. 1],Efficacy GIPR,96%
B6,Efficacy GIPR,108%
